Test results reported in publication PMC7641332 (Nucleic Acids Research, 2020).
Each block holds one binder with its values, some of them ahead of it.

B2: GST-BRCA2NT-HA-His10 (domain or fragment)
chain: MPIGSKERPTFFEIFKTRCNKADLGPISLNWFEELSSEAPPYNSEPAEESEHKNNNYEPNLFKTPQRKPSYNQLASTPIIFKEQGLTLPLYQSPVKELDKFKLDLGRNVPNSRHKSLRTVKTKMDQADDVSCPLLNSCLSESPVVLQCTHVTPQRDKSVVCGSLFHTPKFVKGRQTPKHISESLGAEVDPDMSWSSSLATPPTLSSTVLIVRNEEASETVFPHDTTANVKSYFSNHDESLKKNDRFIASVTDSENTNQREAASHGFGKTSGNSFKVNSCKDHIGKSMPNVLEDEVYETVVDTSEEDSFSLCFSKCRTKNLQKVRTSKTRKKIFHEANADECEKSKNQVKEKYSFVSEVEPNDTDPLDSNVANQKPFESGSDKISKEVVPSLACEWSQLTLSGLNGAQMEKIPLLHISSCDQNISEKDLLDTENKRKKDFLTSENSLPRISSLPKSEKPLNEETVVNKRDEEQHLESHTDCILAVKQAISGTSPVASSFQGIKKSIFRIRESPKETFNASFSGHMTDPNFKKETEASESGLEIHTVCSQKEDSLCPNLIDNGSWPATTTQNSVALKNAGLISTLKKKTNKFIYAIHDETSYKGKKIPKDQKSELINCSAQFEANAFEAPLTFANADSGLLHSSVKRSCSQNDSEEPTLSLTSSFGTILRKCSRNETCSNNTVISQDLDYKEAKCNKEKLQLFITPEADSLSCLQE
B3: 2× MBP-BRCA2NT-FLAG-His10 (domain or fragment)
chain: MPIGSKERPTFFEIFKTRCNKADLGPISLNWFEELSSEAPPYNSEPAEESEHKNNNYEPNLFKTPQRKPSYNQLASTPIIFKEQGLTLPLYQSPVKELDKFKLDLGRNVPNSRHKSLRTVKTKMDQADDVSCPLLNSCLSESPVVLQCTHVTPQRDKSVVCGSLFHTPKFVKGRQTPKHISESLGAEVDPDMSWSSSLATPPTLSSTVLIVRNEEASETVFPHDTTANVKSYFSNHDESLKKNDRFIASVTDSENTNQREAASHGFGKTSGNSFKVNSCKDHIGKSMPNVLEDEVYETVVDTSEEDSFSLCFSKCRTKNLQKVRTSKTRKKIFHEANADECEKSKNQVKEKYSFVSEVEPNDTDPLDSNVANQKPFESGSDKISKEVVPSLACEWSQLTLSGLNGAQMEKIPLLHISSCDQNISEKDLLDTENKRKKDFLTSENSLPRISSLPKSEKPLNEETVVNKRDEEQHLESHTDCILAVKQAISGTSPVASSFQGIKKSIFRIRESPKETFNASFSGHMTDPNFKKETEASESGLEIHTVCSQKEDSLCPNLIDNGSWPATTTQNSVALKNAGLISTLKKKTNKFIYAIHDETSYKGKKIPKDQKSELINCSAQFEANAFEAPLTFANADSGLLHSSVKRSCSQNDSEEPTLSLTSSFGTILRKCSRNETCSNNTVISQDLDYKEAKCNKEKLQLFITPEADSLSCLQE
B5: 2× MBP-BRCA2CT-FLAG-His10 (domain or fragment)
chain: QEKSLKASKSTPDGTIKDRRLFMHHVSLEPITCVPFRTTKERQEIQNPNFTAPGQEFLSKSHLYEHLTLEKSSSNLAVSGHPFYQVSATRNEKMRHLITTGRPTKVFVPPFKTKSHFHRVEQCVRNINLEENRQKQNIDGHGSDDSKNKINDNEIHQFNKNNSNQAVAVTFTKCEEEPLDLITSLQNARDIQDMRIKKKQRQRVFPQPGSLYLAKTSTLPRISLKAAVGGQVPSACSHKQLYTYGVSKHCIKINSKNAESFQFHTEDYFGKESLWTGKGIQLADGGWLIPSNDGKAGKEEFYRALCDTPGVDPKLISRIWVYNHYRWIIWKLAAMECAFPKEFANRCLSPERVLLQLKYRYDTEIDRSRRSAIKKIMERDDTAAKTLVLCVSDIISLSANISETSSNKTSSADTQKVAIIELTDGWYAVKAQLDPPLLAVLKNGRLTVGQKIILHGAELVGSPDACTPLEAPESLMLKISANSTRPARWYTKLGFFPDPRPFPLPLSSLFSDGGNVGCVDVIIQRAYPIQWMEKTSSGLYIFRNEREEEKEAAKYVEAQQKRLEALFTKIQEEFEEHEENTTKPYLPSRALTRQQVRALQDGAELYEAVKNAADPAYLEGYFSEEQLRALNNHRQMLNDKKQAQIQLEIRKAMESAEQKEQGLSRDVTTVWKLRIVSYSKKEKDSVILSIWRPSSDLYSLLTEGKRYRIYHLATSKSKSKSERANIQLAATKKTQYQQLPVSDEILFQIYQPREPLHFSKFLDPDFQPSCSEVDLIGFVVSVVKKTGLAPFVYLSDECYNLLAIKFWIDLNEDIIKPHMLIAASNLQWRPESKSGLLTLFAGDFSVFSASPKEGHFQETFNKMKNTVENIDILCNEAENKLMHILHANDPKWSTPTKDCTSGPYTAQIIPGTGNKLLMSSPNCEIYYQSPLSLCMAKRKSVSTPVSAQMTSKSCKGEKEIDDQKNCKKRRALDFLSRLPLPPPVSPICTFVSPAAQKAFQPPRSCGTKYETPIKKKELNSPQMTPFKKFNEISLLESNSIADEELALINTQALLSGSTGEKQFISVSESTRTAPTSSEDYLRLKRRCTTSLIKEQESSQASTEECEKNKQDTITTKKYI

Assays:
Experiment in all cases: pull-down
[1] = biological target: B3
[2] = biological target: B5
[3] = biological target: B2
[4] = biological target: T1, 2× MBP-BRCA2OB2-His10 (human, UniProt P51587 2780-3080)
T1 sequence: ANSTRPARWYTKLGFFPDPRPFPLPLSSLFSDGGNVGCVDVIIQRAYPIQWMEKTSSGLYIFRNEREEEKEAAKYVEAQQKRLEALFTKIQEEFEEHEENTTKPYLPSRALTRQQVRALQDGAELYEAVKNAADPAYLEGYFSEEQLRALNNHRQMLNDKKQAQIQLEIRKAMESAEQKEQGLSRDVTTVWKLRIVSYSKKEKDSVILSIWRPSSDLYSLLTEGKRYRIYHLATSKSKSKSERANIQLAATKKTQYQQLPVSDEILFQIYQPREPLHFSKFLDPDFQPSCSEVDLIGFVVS

binding result [1]: binds
B1: GST-BRCA2N7 (domain or fragment)
chain: VTDSENTNQREAASHGFGKTSGNSFKVNSCKDHIGKSMPNVLEDEVYETVVDTSEEDSFSLCFSKCRTKNLQKVRTSKTRKKIFHEANADECEKSKNQVKEKYSFVSEVEPNDTDPLDSNV

Binder: B2
binding result [2]: binds

Binder: B3
binding result [3]: binds

binding result [4]: binds | binding result [1]: binds
B4: GST-BRCA2N9 (domain or fragment)
chain: ILAVKQAISGTSPVASSFQGIKKSIFRIRESPKETFNASFSGHMTDPNFKKETEASESGLEIHTVCSQKEDSLCPNLIDNGSWPATTTQNSVALKNAGLISTLKKKTNKFIYAIHDETSYKGKKIPKDQKSELINCSAQFEANAFEAPLTFANADSGLLHSSVKRSCSQNDSEEPTLSLTSSFGTILRKCSRNETCSNNTVISQDLDYKEAKCNKEKLQLFITPEADSLSCLQE

Binder: B5
fold stronger than the interaction of MBP-BRCA2NT with GST-BRCA2NT [3]: ~6 fold
